Experimental data from publication PMC5436001.

Target: mMyrf N-terminal fragment (from N-terminally tagged wild-type mouse Myrf) (mouse)
Assay: co-IP

- stoichiometry N: 3
Substance: mMyrf N-terminal fragment (from N-terminally tagged wild-type mouse Myrf) (domain or fragment)
